Assay results as given in CN111434683A.
Where “and” joins values, the source holds several entries; their conditions need not be identical. Equal entries are not always repeated.

B1: 抗H7N9全人源单克隆抗体8D11 (antibody, V domains shown)
VH: QVQLVESGAEVKKPGASVKVSCKASGYIFFTSYDINWVRQATGQGLEWMGWMNPDSGDTGFAQKFQGRVTMTRNTSITTAYMELSSLTSEDTAVYYCATGNADCSGGSCYNWFDPWGQGTLVTVSS
VL: SSELTQDPAVSVALGQTVRITCQGDRLRSYTYASWYQQKPGQAPVLVIYGKNNRPSGIPDRFSGSSSGNTASLTITGAQAEDEADYYCNSRTSGYHLVFGGGTKLTVLV

Columns and labels:
[1] = molecular target: H7N9病毒的HA蛋白(购自ACROBiosystems) (H7N9 influenza virus); assay: ELISA, negative control on coated HA
[2] = molecular target: H7N9病毒的HA蛋白(购自ACROBiosystems) (H7N9 influenza virus)
[3] = molecular target: H7N9病毒的HA蛋白(购自ACROBiosystems) (H7N9 influenza virus); assay: ELISA, supernatant of transfected 293F cells on coated HA
[4] = molecular target: H7N9病毒 A/Anhui/1/2013 (H7N9 influenza virus A/Anhui/1/2013); assay: cell-based or functional assay

| Molecule | 450nm [1] | Kd [2] [nM] | 450nm [3] | IC50 (微量中和-ELISA, MDCK细胞) [4] [µg/mL] |
| --- | --- | --- | --- | --- |
| 阴性对照 | 0.0675 OD450 and 0.0554 OD450 |  |  |  |
| B1 |  | 8.3 | 0.956 OD450 and 0.981 OD450 and 0.742 OD450 | 0.89 |
